± gives the uncertainty stated by the source.

First the molecules themselves.
B1: POU domain, class 5, transcription factor 1, residues 134 to 212; numbered along this chain, Q01860 (parent)
chain: EESQDIKALQKELEQFAKLLKQKRITLGYTQADVGLTLGVLFGKVFSQTTICRFEALQLSFKNMCKLRPLLQKWVEEAD

The variants in this data set derive from B1. As to the kind of experiment: abundance fitness (aPCA) (normalised: wild type 0, dead -1); higher = more abundant; growth selection in yeast, the domain comes from the species named. The settings on record: Homo sapiens.
As for EESQDIKALQKELEQFAKLLKQKRITLGYTQADVQLTLGVLFGKVFSQTTICRFEALQLSFKNMCKLRPLLQKWVEEAD [G35Q], the abundance fitness is -0.039 ± 0.25.

In the case of EESQDIKALQKELEQFAKLLKQKRITLGYTQADVSLTLGVLFGKVFSQTTICRFEALQLSFKNMCKLRPLLQKWVEEAD [G35S], the abundance fitness worked out at 0.134 ± 0.14.

In the case of EESQDIKALQKELEQFAKLLKQKRITLGYTQADVGLMLGVLFGKVFSQTTICRFEALQLSFKNMCKLRPLLQKWVEEAD [T37M], the abundance fitness was found to be 0.116 ± 0.12.

Turning to EESQDIKALQKELEQFAKLLKQKRITLGYTQADVGLHLGVLFGKVFSQTTICRFEALQLSFKNMCKLRPLLQKWVEEAD [T37H], the abundance fitness is 0.162 ± 0.2.

Regarding EESQDIKALQKELEQFAKLLKQKRITLGYTQADVGLELGVLFGKVFSQTTICRFEALQLSFKNMCKLRPLLQKWVEEAD [T37E], the abundance fitness was 0.681 ± 0.076.

Take EESQDIKALQKELEQFAKLLKQKRITLGYTQADVGLGLGVLFGKVFSQTTICRFEALQLSFKNMCKLRPLLQKWVEEAD [T37G]: the abundance fitness amounted to 0.296 ± 0.06.

Consider EESQDIKALQKELEQFAKLLKQKRITLGYTQADVGLCLGVLFGKVFSQTTICRFEALQLSFKNMCKLRPLLQKWVEEAD [T37C], for which the abundance fitness was -0.733 ± 0.34.

With EESQDIKALQKELEQFAKLLKQKRITLGYTQADVGLRLGVLFGKVFSQTTICRFEALQLSFKNMCKLRPLLQKWVEEAD [T37R], the abundance fitness was 0.339 ± 0.054.

Take EESQDIKALQKELEQFAKLLKQKRITLGYTQADVGLILGVLFGKVFSQTTICRFEALQLSFKNMCKLRPLLQKWVEEAD [T37I]: the abundance fitness was -0.093 ± 0.18.

As to EESQDIKALQKELEQFAKLLKQKRITLGYTQADVGLYLGVLFGKVFSQTTICRFEALQLSFKNMCKLRPLLQKWVEEAD [T37Y], the abundance fitness is -0.193 ± 0.38.

On to EESQDIKALQKELEQFAKLLKQKRITLGYTQADVGLFLGVLFGKVFSQTTICRFEALQLSFKNMCKLRPLLQKWVEEAD [T37F], for which the abundance fitness came to 0.319 ± 0.23.

With EESQDIKALQKELEQFAKLLKQKRITLGYTQADVGLLLGVLFGKVFSQTTICRFEALQLSFKNMCKLRPLLQKWVEEAD [T37L], the abundance fitness was -0.283 ± 0.12.

Regarding EESQDIKALQKELEQFAKLLKQKRITLGYTQADVGLPLGVLFGKVFSQTTICRFEALQLSFKNMCKLRPLLQKWVEEAD [T37P], the abundance fitness is -0.621 ± 0.33.

In the case of EESQDIKALQKELEQFAKLLKQKRITLGYTQADVGLALGVLFGKVFSQTTICRFEALQLSFKNMCKLRPLLQKWVEEAD [T37A], the abundance fitness stood at 0.345 ± 0.074.

Regarding EESQDIKALQKELEQFAKLLKQKRITLGYTQADVGLSLGVLFGKVFSQTTICRFEALQLSFKNMCKLRPLLQKWVEEAD [T37S], the abundance fitness came to 0.153 ± 0.087.

Regarding EESQDIKALQKELEQFAKLLKQKRITLGYTQADVGLDLGVLFGKVFSQTTICRFEALQLSFKNMCKLRPLLQKWVEEAD [T37D], the abundance fitness was determined as 0.412 ± 0.14.

Consider EESQDIKALQKELEQFAKLLKQKRITLGYTQADVGLKLGVLFGKVFSQTTICRFEALQLSFKNMCKLRPLLQKWVEEAD [T37K], for which the abundance fitness is 0.082 ± 0.16.

EESQDIKALQKELEQFAKLLKQKRITLGYTQADVGLQLGVLFGKVFSQTTICRFEALQLSFKNMCKLRPLLQKWVEEAD [T37Q]: the abundance fitness worked out at 0.394 ± 0.097.

Take EESQDIKALQKELEQFAKLLKQKRITLGYTQADVGLTSGVLFGKVFSQTTICRFEALQLSFKNMCKLRPLLQKWVEEAD [L38S]: the abundance fitness was -0.37 ± 0.17.

For the variant EESQDIKALQKELEQFAKLLKQKRITLGYTQADVGLTMGVLFGKVFSQTTICRFEALQLSFKNMCKLRPLLQKWVEEAD [L38M], the abundance fitness is 0.185 ± 0.15.

Take EESQDIKALQKELEQFAKLLKQKRITLGYTQADVGLTCGVLFGKVFSQTTICRFEALQLSFKNMCKLRPLLQKWVEEAD [L38C]: the abundance fitness is -0.029 ± 0.25.

Take EESQDIKALQKELEQFAKLLKQKRITLGYTQADVGLTWGVLFGKVFSQTTICRFEALQLSFKNMCKLRPLLQKWVEEAD [L38W]: the abundance fitness is -0.214 ± 0.26.

EESQDIKALQKELEQFAKLLKQKRITLGYTQADVGLTPGVLFGKVFSQTTICRFEALQLSFKNMCKLRPLLQKWVEEAD [L38P]: the abundance fitness was -0.662 ± 0.41.

In the case of EESQDIKALQKELEQFAKLLKQKRITLGYTQADVGLTAGVLFGKVFSQTTICRFEALQLSFKNMCKLRPLLQKWVEEAD [L38A], the abundance fitness was -0.275 ± 0.14.

Take EESQDIKALQKELEQFAKLLKQKRITLGYTQADVGLTQGVLFGKVFSQTTICRFEALQLSFKNMCKLRPLLQKWVEEAD [L38Q]: the abundance fitness was -0.482 ± 0.36.

In the case of EESQDIKALQKELEQFAKLLKQKRITLGYTQADVGLTRGVLFGKVFSQTTICRFEALQLSFKNMCKLRPLLQKWVEEAD [L38R], the abundance fitness is -0.511 ± 0.13.

In the case of EESQDIKALQKELEQFAKLLKQKRITLGYTQADVGLTTGVLFGKVFSQTTICRFEALQLSFKNMCKLRPLLQKWVEEAD [L38T], the abundance fitness was -0.035 ± 0.23.

On to EESQDIKALQKELEQFAKLLKQKRITLGYTQADVGLTKGVLFGKVFSQTTICRFEALQLSFKNMCKLRPLLQKWVEEAD [L38K], for which the abundance fitness is -0.603 ± 0.31.

In the case of EESQDIKALQKELEQFAKLLKQKRITLGYTQADVGLTEGVLFGKVFSQTTICRFEALQLSFKNMCKLRPLLQKWVEEAD [L38E], the abundance fitness was -0.701 ± 0.24.

For the variant EESQDIKALQKELEQFAKLLKQKRITLGYTQADVGLTVGVLFGKVFSQTTICRFEALQLSFKNMCKLRPLLQKWVEEAD [L38V], the abundance fitness is -0.52 ± 0.14.

For EESQDIKALQKELEQFAKLLKQKRITLGYTQADVGLTGGVLFGKVFSQTTICRFEALQLSFKNMCKLRPLLQKWVEEAD [L38G], the abundance fitness was -0.832 ± 0.18.

EESQDIKALQKELEQFAKLLKQKRITLGYTQADVGLTHGVLFGKVFSQTTICRFEALQLSFKNMCKLRPLLQKWVEEAD [L38H]: the abundance fitness is -0.313 ± 0.38.

For EESQDIKALQKELEQFAKLLKQKRITLGYTQAWVGLTLGVLFGKVFSQTTICRFEALQLSFKNMCKLRPLLQKWVEEAD [D33W], the abundance fitness was -0.563 ± 0.23.

Turning to EESQDIKALQKELEQFAKLLKQKRITLGYTQATVGLTLGVLFGKVFSQTTICRFEALQLSFKNMCKLRPLLQKWVEEAD [D33T], the abundance fitness was -1.08 ± 0.5.

For EESQDIKALQKELEQFAKLLKQKRITLGYTQAVVGLTLGVLFGKVFSQTTICRFEALQLSFKNMCKLRPLLQKWVEEAD [D33V], the abundance fitness is -1.19 ± 0.42.

(Values after the Human Domainome abundance scans (Beltran et al. 2025).)
